# According to publication PMC3479173:
# Substitutions are numbered along the chain they refer to.
# B1: 14-bp non-specific DNA (ns) (dsDNA)
# DNA 1: GATTTGCATTTTAA
# DNA 2: TTAAAATGCAAATC
# B2: RRM1 16-bp DNA probe (dsDNA)
# DNA 1: GCTTGTGTGGGCAGCG
# DNA 2: CGCTGCCCACACAAGC
# Assays:
# THAP1 THAP domain WT [1] = molecular target: T1, THAP1 THAP domain WT (human, UniProt Q9NVV9 1-81); assay: ITC
# T1 sequence: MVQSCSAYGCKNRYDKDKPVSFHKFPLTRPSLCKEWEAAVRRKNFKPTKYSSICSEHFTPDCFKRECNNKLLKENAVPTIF
# THAP1 THAP domain N12K [2] = molecular target: T2, THAP1 THAP domain N12K (human, UniProt Q9NVV9 1-81, N12K); assay: ITC
# T2 sequence: T1 sequence with N12K
# THAP1 THAP domain WT [3] = molecular target: T1, THAP1 THAP domain WT; assay: fluorescence quenching
# THAP1 THAP domain N12K [4] = molecular target: T2, THAP1 THAP domain N12K; assay: fluorescence quenching
# THAP1 THAP domain Y8C [5] = molecular target: T3, THAP1 THAP domain Y8C (human, UniProt Q9NVV9 1-81, Y8C); assay: ITC
# T3 sequence: T1 sequence with Y8C
# THAP1 THAP domain F81L [6] = molecular target: T4, THAP1 THAP domain F81L (human, UniProt Q9NVV9 1-81, F81L); assay: ITC
# T4 sequence: T1 sequence with F81L
# THAP1 THAP domain Y8C [7] = molecular target: T3, THAP1 THAP domain Y8C; assay: fluorescence quenching
# THAP1 THAP domain D17G = molecular target: T5, THAP1 THAP domain D17G (human, UniProt Q9NVV9 1-81, D17G); assay: fluorescence quenching
# T5 sequence: T1 sequence with D17G
# THAP1 THAP domain F81L [8] = molecular target: T4, THAP1 THAP domain F81L; assay: fluorescence quenching
Binder,Kd (THAP1 THAP domain WT [1]) [µM],Kd (THAP1 THAP domain N12K [2]) [nM],Kd (THAP1 THAP domain WT [3]) [nM],Kd (THAP1 THAP domain N12K [4]) [nM],Kd (THAP1 THAP domain Y8C [5]) [nM],Kd (THAP1 THAP domain F81L [6]) [nM],Kd (THAP1 THAP domain Y8C [7]) [nM],Kd (THAP1 THAP domain D17G) [nM],Kd (THAP1 THAP domain F81L [8]) [nM]
B1,8.93 ± 1.28,1750 ± 500,1800 ± 150,400 ± 65,–,–,–,–,–
B2,0.54 ± 0.19,–,150 ± 10,–,510 ± 100,700 ± 60,230 ± 20,25 ± 5,100 ± 10
